The target in assay [1] is T1, Human ANGPTL4(26-406)-FLAG-His6-Avi (human, UniProt Q9BY76 24-406, biotin on the C-terminal Avi tag (BirA) where the protein is immobilised).
T1 construct: the text calls it 20 amino acids), then QP, ANGPTL4 26-406 and FLAG-His6-Avi; the signal peptide is left out here; also called full length human ANGPTL4; hANGPTL4
T1 sequence: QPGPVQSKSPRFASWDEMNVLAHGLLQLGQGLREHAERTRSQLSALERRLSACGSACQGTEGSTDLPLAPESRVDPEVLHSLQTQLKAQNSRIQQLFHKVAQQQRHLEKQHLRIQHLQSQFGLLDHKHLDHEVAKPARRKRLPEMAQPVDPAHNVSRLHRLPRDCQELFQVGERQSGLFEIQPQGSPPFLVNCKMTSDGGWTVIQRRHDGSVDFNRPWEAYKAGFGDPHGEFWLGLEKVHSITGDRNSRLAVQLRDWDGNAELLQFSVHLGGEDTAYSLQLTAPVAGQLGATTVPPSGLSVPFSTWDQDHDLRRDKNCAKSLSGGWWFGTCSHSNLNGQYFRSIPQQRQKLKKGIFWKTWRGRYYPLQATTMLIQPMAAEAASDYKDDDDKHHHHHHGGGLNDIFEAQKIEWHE
Kind of assay: Octet (ForteBio) kinetics, biotinylated antigen on streptavidin sensor, IgG in solution; slower than the limit of detection. On the technique in general: In BLI a coated tip is dipped into the sample, and binding shifts an interference pattern.

Assay [2] deals with T2, Human ANGPTL4(26-161)-FLAG-His6-Avi (human, biotin on the C-terminal Avi tag (BirA) where the protein is immobilised).
T2 construct: also called human ANGPTL4 N-terminal coiled coil domain; hANGPTL4-CCD
T2 chain: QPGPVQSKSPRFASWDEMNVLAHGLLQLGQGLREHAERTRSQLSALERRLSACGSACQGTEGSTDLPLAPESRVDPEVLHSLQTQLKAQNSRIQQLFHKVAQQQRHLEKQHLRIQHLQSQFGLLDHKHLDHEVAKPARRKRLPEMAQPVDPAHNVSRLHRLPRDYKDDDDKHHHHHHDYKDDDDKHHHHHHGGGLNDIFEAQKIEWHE
Described as above.

Assay [3] has as its target T3, Cynomolgus monkey ANGPTL4(26-406)-FLAG-His6-Avi (cynomolgus monkey, biotin on the C-terminal Avi tag (BirA) where the protein is immobilised).
T3 construct: also called Cyno ANGPTL4 (26-406)
T3 chain: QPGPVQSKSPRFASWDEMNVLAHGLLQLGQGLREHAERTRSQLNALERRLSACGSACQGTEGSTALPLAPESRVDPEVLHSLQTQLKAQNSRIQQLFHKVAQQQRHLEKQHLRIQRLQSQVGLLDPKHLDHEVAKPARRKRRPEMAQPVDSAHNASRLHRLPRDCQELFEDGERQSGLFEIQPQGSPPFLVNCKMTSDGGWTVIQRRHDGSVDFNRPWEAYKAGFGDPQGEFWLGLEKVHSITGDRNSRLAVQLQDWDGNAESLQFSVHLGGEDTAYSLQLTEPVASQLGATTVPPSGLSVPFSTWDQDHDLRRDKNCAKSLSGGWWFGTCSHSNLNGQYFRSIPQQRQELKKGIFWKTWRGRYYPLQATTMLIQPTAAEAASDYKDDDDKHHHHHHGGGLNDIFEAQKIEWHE
The description is as above.

Assay [4] has as its target T4, Mouse ANGPTL4(26-410)-FLAG-His6-Avi (mouse, UniProt Q9Z1P8 24-410, biotin on the C-terminal Avi tag (BirA) where the protein is immobilised).
T4 sequence: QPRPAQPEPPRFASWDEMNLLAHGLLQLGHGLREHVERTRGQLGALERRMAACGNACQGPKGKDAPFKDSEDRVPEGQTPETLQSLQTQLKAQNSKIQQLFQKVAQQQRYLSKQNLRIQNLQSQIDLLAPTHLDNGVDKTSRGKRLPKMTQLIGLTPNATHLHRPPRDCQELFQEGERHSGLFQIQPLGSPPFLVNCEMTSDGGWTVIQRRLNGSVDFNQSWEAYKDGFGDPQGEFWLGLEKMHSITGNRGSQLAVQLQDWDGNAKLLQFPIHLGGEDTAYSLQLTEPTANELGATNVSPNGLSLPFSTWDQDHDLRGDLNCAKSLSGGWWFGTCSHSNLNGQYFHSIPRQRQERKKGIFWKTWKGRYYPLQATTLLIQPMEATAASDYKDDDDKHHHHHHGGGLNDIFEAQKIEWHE
As to the kind of experiment: Octet (ForteBio) kinetics, biotinylated antigen on streptavidin sensor, IgG in solution; Octet kinetics, mouse ANGPTL4 on the sensor, antibody up to 25 nM; run 1.

Assay [5] concerns the target T1, Human ANGPTL4(26-406)-FLAG-His6-Avi. As to the kind of experiment: Octet (ForteBio) kinetics, biotinylated antigen on streptavidin sensor, IgG in solution; slower than the limit of detection (about 5e-6 s^-1). The method, then:
Dissociation constants (KD) were determined for selected antibodies of the invention by using an Octet (ForteBio) kinetic binding assay. ForteBio 10× Kinetics Buffer (ForteBio, catalog number 18-5032) was diluted 10-fold with DPBS (Life Technologies, catalog number 14190-136), and the resulting solution was added (0.2 ml per well) to a 96-well plate (Greiner, catalog number 65520). Streptavidin sensors (ForteBio, catalog number 18-5020) were immersed in the solution and equilibrated for at least 10 min at room temperature. In a second 96-well plate (Greiner, catalog number 65520), sensors were washed in 1× Kinetics buffer, and then immersed in 200 ul of 25 nM biotinylated human ANGPTL4 or a biotinylated reference protein (for background subtraction) for 1000 sec at […] room temperature. […] The sensors were then transferred to a well containing 200 μl 1× Kinetics buffer, and antibody dissociation was monitored for 1200 seconds. Background-corrected association and dissociation curves were globally fitted by Octet Software (ForteBio) to generate association (kₐ) and dissociation (kd) rate constants, which in turn were used to calculate equilibrium dissociation constants (KD).

B1: NEG276-LALA (antibody, human IgG1, kappa, L234A L235A)
heavy: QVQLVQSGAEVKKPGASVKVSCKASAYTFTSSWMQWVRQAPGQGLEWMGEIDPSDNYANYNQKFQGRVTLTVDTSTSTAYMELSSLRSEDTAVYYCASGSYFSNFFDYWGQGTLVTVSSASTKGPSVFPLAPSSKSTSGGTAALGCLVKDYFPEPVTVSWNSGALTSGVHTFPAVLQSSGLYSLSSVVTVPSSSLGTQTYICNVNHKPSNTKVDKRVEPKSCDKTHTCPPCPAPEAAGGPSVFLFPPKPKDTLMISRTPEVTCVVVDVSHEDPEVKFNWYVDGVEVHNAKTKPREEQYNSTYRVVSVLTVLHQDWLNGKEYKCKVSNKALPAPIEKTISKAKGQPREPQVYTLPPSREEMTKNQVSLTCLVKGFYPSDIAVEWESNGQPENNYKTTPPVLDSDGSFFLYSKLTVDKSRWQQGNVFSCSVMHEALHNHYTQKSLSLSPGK
light: EIVMTQSPATLSVSPGERATLSCKASQDIGSNLNWLQQKPGQAPRRLIYAVSNRGPGIPARFSGSRSGSEYTLTISSLQSEDFAVYYCLQYASSPWTFGQGTKVEIKRTVAAPSVFIFPPSDEQLKSGTASVVCLLNNFYPREAKVQWKVDNALQSGNSQESVTEQDSKDSTYSLSSTLTLSKADYEKHKVYACEVTHQGLSSPVTKSFNRGEC
By koff is commonly meant a measure of how fast the partners let go of each other. By Kd is commonly meant the equilibrium constant for the complex coming apart. Broadly, the kon is a measure of how fast the partners come together. Turning to B1, the dissociation rate constant (koff) came to 4.9e-07 s⁻¹ in assay [1], 3.1e-06 s⁻¹ in assay [2], 4.1e-06 s⁻¹ in assay [3] and 0.0029 s⁻¹ in assay [4]. Moreover, binding in assay [4] was put at a Kd of 8.25 nM. Also, the on-rate constant (kon) in assay [4] turned out to be 360000 M⁻¹ s⁻¹.

B2: NEG278 (antibody, human IgG1, kappa, V domains shown)
VH: QVQLVQSGAEVKKPGASVKVSCKASAYTFTSSWMQWVRQAPGQGLEWMGEIDPSDNYANYNQKFQGRVTLTVDTSTSTAYMELSSLRSEDTAVYYCASGSYFSNFFDYWGQGTLVTVSS
VL: EIVMTQSPATLSVSPGERATLSCKASQDIGSNLNWLQQKPGQAPRRLIYAASVREPGIPARFSGSRSGSEYTLTISSLQSEDFAVYYCLQYASSPWTFGQGTKVEIKR
notes: humanized, hIgG1/kappa, parental antibody 19C16
B2 registered a koff in assay [5] of 6.7e-07 s⁻¹.
